Test [1] addresses cell surface IgG (sIgG) of the sIgG+ B-cell line SU-DHL-4 (human (endogenous in SU-DHL-4)).
Test [2] shares this target. This is another data set of the same source.

With “IgAimG (SpA toxin 2): diphtheria toxin without its receptor binding domain, GGGS linker, SpA ZZ domain”, the viability of SU-DHL-4 after 3 days with 10 to 100 μg/ml IgAimG in the presence of human serum (luminescent cell viability assay) (% of cells killed) in test [1] was greater than 99. Moreover, the viability of the sIgG+ B-cell line SU-DHL-4 after 3 days with the toxin (luminescent cell viability assay); toxic from 0.0001 μg/ml (% of cells killed) in test [2] was found to be 99.
